# Experimental data from publication PMC9064986.
# Target: Recombinant human BMP10 growth factor (GF)-domain (R&D Systems) (UniProt O95393)
# Experiment: SPR (Biacore)
# Conditions: BMP10 immobilised on a CM5 Biacore chip; parent: 1.35E+05 M-1s-1
# Recombinant human BMP10 growth factor (GF)-domain (R&D Systems), sequence (O95393 317-424): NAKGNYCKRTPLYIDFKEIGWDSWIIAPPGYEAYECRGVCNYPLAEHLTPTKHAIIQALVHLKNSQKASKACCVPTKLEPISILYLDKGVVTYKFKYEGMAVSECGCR
substance,measurement,value
"BMPRII extracellular domain (ECD), wild type (from UniProt Q13873-1) ΔGDP (del of Gly, Asp and Pro in the A-loop)",kon,49600 M⁻¹ s⁻¹
